{"source": "patent US7563864B2", "about": "“Prolyl endopeptidase mediated destruction of T cell epitopes in whole gluten” (Celiac Sprue Research Foundation, priority 2004, dated 2009)", "key": {"PEP activity assay": {"assay": "PEP activity assay", "type": "biochemical", "conditions": "recombinant PEP; pH 7.5, 37° C.", "protocol": "Carboxypeptidase A: 995 μL 1.0 mM Hippuryl-L-Phe in 25 mM Tris and 500 mM NaCl, pH 7.5 was mixed with 5 μL Carboxypeptidase A (0.2 mg/ml). Absorption at 254 nm was recorded for 2′, every 10″. One unit hydrolyzes 1 μmol of Hippuryl-L-Phe per min at pH 7.5 and 25° C. Extinction coefficient 0.36 cm^2/μmol at 254 nm. PEP: To 10 μL Z-Gly-Pro-p-Nitroanilide 16.8 mg/ml in dioxane were added 70 μL dioxane, 120 μL water and 800 μL PBS buffer. This substrate solution was incubated at 37° C. for 10′; then 0.2-2 μL PEP were added and the absorption at 410 nm was recorded for 2′, every 10″. One unit hydrolyzes 1 μmol of Z-Gly-Pro-p-Nitroanilide per min at pH 7.5 and 37° C. Extinction coefficient 8.8 cm^2/μmol at 410 nm."}, "[1]": {"tested_on": "polyclonal T cell lines derived from small intestinal biopsies of Celiac Sprue patients", "assay": "T cell assays, 14 polyclonal T cell lines taken together", "type": "cell-based, human", "conditions": "PEP in combination with gastric and pancreatic enzymes and brush border membrane enzymes; in most cases", "protocol": "Gluten treatment with gastric and pancreatic enzymes—Wheat gluten flour (3.0 g) was added to 100 ml of water with addition of HCl to achieve a stable suspension at pH 2.0. Pepsin (Pepsin NF powder, 1:10000, 60 mg) was mixed in to the gluten suspension and the gluten-pepsin mixture was shaken constantly at 37° C. for 2 h. After the pepsin treatment had been completed, 350 mg of Na2HPO4 were added and the pH adjusted to 7.9 by addition of 0.1 M NaOH. Trypsin/Chymotrypsin (38 mg) were added and the mixture was shaken again at 37° C. for 2 h and then heated to >95° C. for 10 min. After cooling to room temperature, 74 μL of the mixture was treated with Elastase (20 μL, 1 mg/ml) and the mixture was diluted to 1.7 mg/ml using PBS buffer, pH=7.5. The mixture was maintained at 37° C. After 2 h the digested gluten suspension was heated to 95° C. for 10 minutes and cooled to room temperature. After this, 20 μL of Carboxypeptidase A were added and incubated for 2 h at 37° C., and subsequently heat deactivated. […]\nT cell assays—The generation of polyclonal gluten-specific T cell lines derived from ex vivo gluten challenged small intestinal biopsy specimens of adult Celiac Sprue patients have been described elsewhere. […] The proliferation in the wells was evaluated by ^3H thymidine incorporation from 48-72 hours after the addition of the T cells."}, "TCC 370 E3.19": {"tested_on": "TCC 370 E3.19", "assay": "T cell clone assay, α-III specific clone", "type": "cell-based, human", "conditions": "clone 370E3.19; FIGS. 6A and 6B", "protocol": "(§1) Prolyl endopeptidase (PEP) and Brush Border Membrane (BBM) treatment—Recombinant PEP (Sp. Act ˜40 U/mg) was added at a ratio of 200 mU/mg of the PTC-digested gluten substrate, and incubated at 37° C. for 15 min to 1 h and then heat de-activated, depending on the sample. Subsequently BBM (65 mU (DPP IV activity)/mg substrate) was added and the mixture was incubated for 1 h and heat de-activated. Control samples contained PEP and BBM buffer solutions without the enzymes.\n(§2) T cell assays—The generation of polyclonal gluten-specific T cell lines derived from ex vivo gluten challenged small intestinal biopsy specimens of adult Celiac Sprue patients have been described elsewhere. For this study 14 different intestinal T cell lines derived from 13 DQ2+celiac patients were selected based on two basic criteria; effective recognition of TG2-treated digests of gluten and significant responses to at least two different gluten epitopes (Table 2). The generation of intestinal T cell clones and the epitope specificity of these clones, except TCC 387.3, has been described elsewhere (10). The TCC 387.3 recognizes a TG2-dependent epitope, defined as γ-VI that is contained within residues 62-72 (PQQPFPQQPQQ) of recombinant γ-5 gliadin. […] The proliferation in the wells was evaluated by ^3H thymidine incorporation from 48-72 hours after the addition of the T cells."}, "T cell clone 430.1.135": {"tested_on": "T cell clone 430.1.135", "assay": "T cell clone assay, α-II specific clone", "type": "cell-based, human", "conditions": "FIGS. 6A and 6B", "protocol": "as §1, §2"}, "TCC 387.3": {"tested_on": "TCC 387.3", "assay": "T cell clone assay, γ-VI specific clone", "type": "cell-based, human", "conditions": "FIG. 6B", "protocol": "as §1, §2"}, "TCC 387 E9": {"tested_on": "TCC 387 E9", "assay": "T cell clone assay, α-I specific clone", "type": "cell-based, human", "conditions": "clone 387E9; FIGS. 6A and 6B; after 60 min PEP treatment", "protocol": "as §1, §2"}}}
{"molecule": "PEP: Recombinant prolyl endopeptidase, Flavobacterium meningosepticum enzyme (protein, UniProt P27028 21-705, looked up) Prolyl endopeptidase: QNSNVLKYPETKKVSHTDTYFGTQVSDPYRWLEDDRAEDTKAWVQQEVKFTQDYLAQIPFRDQLKKQLMDIWNYEKISAPFKKGKYTYFSKNDGLQAQSVLYRKDAAGKTEVFLDPNKFSEKGTTSLASVSFNKKGTLVAYSISEGGSDWNKIIILDAETKKQLDETLLDVKFSGISWLGDEGFFYSSYDKPKEGSVLSGMTDKHKVYFHKLGTKQSQDELIIGGDKFPRRYIGAYVTDDQRYLVVSAANATNGNELYIKDLKNKTDFIPIITGFDSNVNVADTDGDTLYLFTDKDAPNKRLVKTTIQNPKAETWKDVIAETSEPLEINTGGGYFFATYMKDAIDQVKQYDKNGKLVRAIKLPGSGNASGFGGEKTEKDLYYSFTNYITPPTIFKYNVTTGNSEVYQKPKVKFNPENYVSEQVFYTSSDGTKIPMMISYKKGLKKDGKNPTILYSYGGFNISLQPAFSVVNAIWMENGGIYAVPNIRGGGEYGKKWHDAGTKMQKKNVFNDFIAAGEYLQKNGYTSKEYMALSGRSNGGLLVGATMTMRPDLAKVAFPGVGVLDMLRYNKFTAGAGWAYDYGTAEDSKEMFEYLKSYSPVHNVKAGTCYPSTMVITSDHDDRVVPAHSFKFGSELQAKQSCKNPILIRIETNAGHGAGRSTEQVVAENADLLSFALYEMGIKSLK", "values": [{"measurement": "specific activity (Sp. Act)", "setting": "PEP activity assay", "value": "~40", "unit": "U/mg"}, {"measurement": "immune response of patient derived intestinal T cells, relative to the response induced by positive controls", "setting": "[1]", "value": "less than 2%"}, {"measurement": "T cell clone response to treated gluten: destruction of the α-III epitope", "setting": "TCC 370 E3.19", "value": "almost completely destroyed at the earliest time point"}, {"measurement": "T cell clone response to treated gluten: destruction of the α-II epitope", "setting": "T cell clone 430.1.135", "value": "almost completely destroyed at the earliest time point"}, {"measurement": "T cell clone response to treated gluten: destruction of the γ-VI epitope", "setting": "TCC 387.3", "value": "persist for longer durations"}, {"measurement": "T cell clone response to treated gluten: destruction of the α-I epitope", "setting": "TCC 387 E9", "value": "retains some activity"}]}
